Patent publication US20200270325A1 (Merck Sharp & Dohme, published 2020)
Numbered stars: 1 amine (or outer) side, 2 acyl side, 3 side chain; on linkers, the order of the positions; unused ones are H or OH. Square brackets hold non-standard residues; d marks the D form. Side chains are listed from the residue outwards. Ends that are not written are not given here. * marks the point of attachment. Phe(4-CH2NH2) = NCc1ccc(C[C@H](N)C(=O)O)cc1; C18 diacid = O=C(O)CCCCCCCCCCCCCCCCC(=O)*; C16 diacid = O=C(O)CCCCCCCCCCCCCCC(=O)*; γGlu = O=C(O)[C@H](CCC(=O)[*:2])N[*:1]; Met(O2) = CS(=O)(=O)CC[C@H](N)C(=O)O; αMeD = C[C@](N)(CC(=O)O)C(=O)O; AEEA = NCCOCCOCC(=O)O; Aib = CC(C)(N)C(=O)O; C16 = lipid (C16)

Experiments:
[1] = molecular target: human Glucagon receptor (GCGR) (human, UniProt P47871 26-477); assay: cell-based or functional assay
Chain of human Glucagon receptor (GCGR) (P47871 26-477): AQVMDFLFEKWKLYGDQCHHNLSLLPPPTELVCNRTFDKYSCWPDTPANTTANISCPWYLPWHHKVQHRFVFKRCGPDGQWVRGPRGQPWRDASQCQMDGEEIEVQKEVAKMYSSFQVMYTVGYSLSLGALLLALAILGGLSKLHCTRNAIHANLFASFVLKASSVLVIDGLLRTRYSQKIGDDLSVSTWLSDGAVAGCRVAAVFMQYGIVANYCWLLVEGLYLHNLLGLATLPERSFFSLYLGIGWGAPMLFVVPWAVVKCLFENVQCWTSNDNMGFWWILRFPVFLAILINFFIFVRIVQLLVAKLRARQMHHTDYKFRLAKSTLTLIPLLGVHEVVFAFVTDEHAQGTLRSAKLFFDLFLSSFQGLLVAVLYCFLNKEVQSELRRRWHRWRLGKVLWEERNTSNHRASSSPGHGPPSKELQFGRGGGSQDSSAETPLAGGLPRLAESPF

[2] = molecular target: human GLP-1 receptor (GLP1R) (human, UniProt P43220 24-463); assay: cell-based or functional assay

GCGR EC50 human [1] [nM] | GLP1R EC50 human [2] [nM] | Binder
0.35 | > 20 | H[Aib]QGTFLSDYSKYLDARAAK([AEEA-AEEA-γGlu-C18 diacid])DFVQWL[Met(O2)]DT-NH2 (N-terminus assumed; SMILES CC(C)C[C@H](NC(=O)[C@H](Cc1ccc(O)cc1)NC(=O)[C@H](CCCCN)NC(=O)[C@H](CO)NC(=O)[C@H](Cc1ccc(O)cc1)NC(=O)[C@H](CC(=O)O)NC(=O)[C@H](CO)NC(=O)[C@H](CC(C)C)NC(=O)[C@H](Cc1ccccc1)NC(=O)[C@@H](NC(=O)CNC(=O)[C@H](CCC(N)=O)NC(=O)C(C)(C)NC(=O)[C@@H](N)Cc1c[nH]cn1)[C@@H](C)O)C(=O)N[C@@H](CC(=O)O)C(=O)N[C@@H](C)C(=O)N[C@@H](CCCNC(=N)N)C(=O)N[C@@H](C)C(=O)N[C@@H](C)C(=O)N[C@@H](CCCCNC(=O)COCCOCCNC(=O)COCCOCCNC(=O)CC[C@H](NC(=O)CCCCCCCCCCCCCCCCC(=O)O)C(=O)O)C(=O)N[C@@H](CC(=O)O)C(=O)N[C@@H](Cc1ccccc1)C(=O)N[C@H](C(=O)N[C@@H](CCC(N)=O)C(=O)N[C@@H](Cc1c[nH]c2ccccc12)C(=O)N[C@@H](CC(C)C)C(=O)N[C@@H](CCS(C)(=O)=O)C(=O)N[C@@H](CC(=O)O)C(=O)N[C@H](C(N)=O)[C@@H](C)O)C(C)C) [TP596]
3.47 | 2.21 | H[Aib]QGTFTSDYSKYLDALAAK([AEEA-AEEA-γGlu-C18 diacid])DFVQWL[Met(O2)]DT-NH2 (N-terminus assumed; SMILES CC(C)C[C@H](NC(=O)[C@H](C)NC(=O)[C@H](CC(=O)O)NC(=O)[C@H](CC(C)C)NC(=O)[C@H](Cc1ccc(O)cc1)NC(=O)[C@H](CCCCN)NC(=O)[C@H](CO)NC(=O)[C@H](Cc1ccc(O)cc1)NC(=O)[C@H](CC(=O)O)NC(=O)[C@H](CO)NC(=O)[C@@H](NC(=O)[C@H](Cc1ccccc1)NC(=O)[C@@H](NC(=O)CNC(=O)[C@H](CCC(N)=O)NC(=O)C(C)(C)NC(=O)[C@@H](N)Cc1c[nH]cn1)[C@@H](C)O)[C@@H](C)O)C(=O)N[C@@H](C)C(=O)N[C@@H](C)C(=O)N[C@@H](CCCCNC(=O)COCCOCCNC(=O)COCCOCCNC(=O)CC[C@H](NC(=O)CCCCCCCCCCCCCCCCC(=O)O)C(=O)O)C(=O)N[C@@H](CC(=O)O)C(=O)N[C@@H](Cc1ccccc1)C(=O)N[C@H](C(=O)N[C@@H](CCC(N)=O)C(=O)N[C@@H](Cc1c[nH]c2ccccc12)C(=O)N[C@@H](CC(C)C)C(=O)N[C@@H](CCS(C)(=O)=O)C(=O)N[C@@H](CC(=O)O)C(=O)N[C@H](C(N)=O)[C@@H](C)O)C(C)C) [TP599]
1.8 | 8.5 | H[Aib]QGTFTSDK([γGlu-γGlu-C16])SKYLDARAAK([AEEA-AEEA-γGlu-C18 diacid])DFVQWL[Met(O2)]DT-NH2 [TP601]
6.37 | 0.74 | H[Aib]QGTFTSDYSKYLDARAAQDFV[Phe(4-CH2NH2)]([AEEA-AEEA-γGlu-C18 diacid])WLLDT-NH2 (N-terminus assumed; SMILES CC(C)C[C@H](NC(=O)[C@H](Cc1ccc(O)cc1)NC(=O)[C@H](CCCCN)NC(=O)[C@H](CO)NC(=O)[C@H](Cc1ccc(O)cc1)NC(=O)[C@H](CC(=O)O)NC(=O)[C@H](CO)NC(=O)[C@@H](NC(=O)[C@H](Cc1ccccc1)NC(=O)[C@@H](NC(=O)CNC(=O)[C@H](CCC(N)=O)NC(=O)C(C)(C)NC(=O)[C@@H](N)Cc1c[nH]cn1)[C@@H](C)O)[C@@H](C)O)C(=O)N[C@@H](CC(=O)O)C(=O)N[C@@H](C)C(=O)N[C@@H](CCCNC(=N)N)C(=O)N[C@@H](C)C(=O)N[C@@H](C)C(=O)N[C@@H](CCC(N)=O)C(=O)N[C@@H](CC(=O)O)C(=O)N[C@@H](Cc1ccccc1)C(=O)N[C@H](C(=O)N[C@@H](Cc1ccc(CNC(=O)COCCOCCNC(=O)COCCOCCNC(=O)CC[C@H](NC(=O)CCCCCCCCCCCCCCCCC(=O)O)C(=O)O)cc1)C(=O)N[C@@H](Cc1c[nH]c2ccccc12)C(=O)N[C@@H](CC(C)C)C(=O)N[C@@H](CC(C)C)C(=O)N[C@@H](CC(=O)O)C(=O)N[C@H](C(N)=O)[C@@H](C)O)C(C)C) [TP583]
2.17 | 0.36 | H[Aib]QGTFTSDYSKYLDARAAQDFVQWL[Met(O2)]K([AEEA-AEEA-γGlu-C18 diacid])T-NH2 (N-terminus assumed; SMILES CC(C)C[C@H](NC(=O)[C@H](Cc1ccc(O)cc1)NC(=O)[C@H](CCCCN)NC(=O)[C@H](CO)NC(=O)[C@H](Cc1ccc(O)cc1)NC(=O)[C@H](CC(=O)O)NC(=O)[C@H](CO)NC(=O)[C@@H](NC(=O)[C@H](Cc1ccccc1)NC(=O)[C@@H](NC(=O)CNC(=O)[C@H](CCC(N)=O)NC(=O)C(C)(C)NC(=O)[C@@H](N)Cc1c[nH]cn1)[C@@H](C)O)[C@@H](C)O)C(=O)N[C@@H](CC(=O)O)C(=O)N[C@@H](C)C(=O)N[C@@H](CCCNC(=N)N)C(=O)N[C@@H](C)C(=O)N[C@@H](C)C(=O)N[C@@H](CCC(N)=O)C(=O)N[C@@H](CC(=O)O)C(=O)N[C@@H](Cc1ccccc1)C(=O)N[C@H](C(=O)N[C@@H](CCC(N)=O)C(=O)N[C@@H](Cc1c[nH]c2ccccc12)C(=O)N[C@@H](CC(C)C)C(=O)N[C@@H](CCS(C)(=O)=O)C(=O)N[C@@H](CCCCNC(=O)COCCOCCNC(=O)COCCOCCNC(=O)CC[C@H](NC(=O)CCCCCCCCCCCCCCCCC(=O)O)C(=O)O)C(=O)N[C@H](C(N)=O)[C@@H](C)O)C(C)C) [TP602]
1.88 | 1.17 | H[Aib]QGTFTSDYSKYLDARAAQDFVQWL[Met(O2)]K([AEEA-AEEA-γGlu-C20‑OH])T-NH2 [TP603]
3.75 | 1.98 | H[Aib]QGTFTSDYSKYLDARAAQDFVQWL[Met(O2)][Phe(4-CH2NH2)]([AEEA-AEEA-γGlu-C20‑OH])T-NH2 [TP605]
1.01 | 1.84 | H[Aib]QGTFTSDK([γGlu-γGlu-C16])SKYLDARAAK([AEEA-AEEA-γGlu-C16 diacid])DFVQWL[Met(O2)]DT-NH2 [TP606]
0.57 | 1.06 | H[Aib]QGTFTSDK([γGlu-γGlu-C16])SKYLDARAAQDFVK([AEEA-AEEA-γGlu-C16 diacid])WL[Met(O2)][αMeD]T-NH2 [TP607]
0.19 | > 5 | H[Aib]QGTFTSDYSKYL[αMeD]ARAAK([AEEA-AEEA-γGlu-C18 diacid])DFVQWL[Met(O2)][αMeD]T-NH2 (N-terminus assumed; SMILES CC(C)C[C@H](NC(=O)[C@H](Cc1c[nH]c2ccccc12)NC(=O)[C@H](CCC(N)=O)NC(=O)[C@@H](NC(=O)[C@H](Cc1ccccc1)NC(=O)[C@H](CC(=O)O)NC(=O)[C@H](CCCCNC(=O)COCCOCCNC(=O)COCCOCCNC(=O)CC[C@H](NC(=O)CCCCCCCCCCCCCCCCC(=O)O)C(=O)O)NC(=O)[C@H](C)NC(=O)[C@H](C)NC(=O)[C@H](CCCNC(=N)N)NC(=O)[C@H](C)NC(=O)[C@](C)(CC(=O)O)NC(=O)[C@H](CC(C)C)NC(=O)[C@H](Cc1ccc(O)cc1)NC(=O)[C@H](CCCCN)NC(=O)[C@H](CO)NC(=O)[C@H](Cc1ccc(O)cc1)NC(=O)[C@H](CC(=O)O)NC(=O)[C@H](CO)NC(=O)[C@@H](NC(=O)[C@H](Cc1ccccc1)NC(=O)[C@@H](NC(=O)CNC(=O)[C@H](CCC(N)=O)NC(=O)C(C)(C)NC(=O)[C@@H](N)Cc1c[nH]cn1)[C@@H](C)O)[C@@H](C)O)C(C)C)C(=O)N[C@@H](CCS(C)(=O)=O)C(=O)N[C@@](C)(CC(=O)O)C(=O)N[C@H](C(N)=O)[C@@H](C)O) [TP610]
0.2 | > 5 | HXQGTFTSDYSKYLDARAAXXFVQWLXXT (Aib (U) at 2; K(PEG2PEG2γEC18-OH) at 20; αMD at 21; L-methionine sulphone (2) at 27; αMD at 28; C-terminal amide) [TP611]
2.04 | 4.95 | H[Aib]QGTFTSDYSKYL[αMeD]ARAAK([AEEA-AEEA-γGlu-C18 diacid])[αMeD]FVQWL[Met(O2)][αMeD]T-NH2 (N-terminus assumed; SMILES CC(C)C[C@H](NC(=O)[C@H](Cc1c[nH]c2ccccc12)NC(=O)[C@H](CCC(N)=O)NC(=O)[C@@H](NC(=O)[C@H](Cc1ccccc1)NC(=O)[C@](C)(CC(=O)O)NC(=O)[C@H](CCCCNC(=O)COCCOCCNC(=O)COCCOCCNC(=O)CC[C@H](NC(=O)CCCCCCCCCCCCCCCCC(=O)O)C(=O)O)NC(=O)[C@H](C)NC(=O)[C@H](C)NC(=O)[C@H](CCCNC(=N)N)NC(=O)[C@H](C)NC(=O)[C@](C)(CC(=O)O)NC(=O)[C@H](CC(C)C)NC(=O)[C@H](Cc1ccc(O)cc1)NC(=O)[C@H](CCCCN)NC(=O)[C@H](CO)NC(=O)[C@H](Cc1ccc(O)cc1)NC(=O)[C@H](CC(=O)O)NC(=O)[C@H](CO)NC(=O)[C@@H](NC(=O)[C@H](Cc1ccccc1)NC(=O)[C@@H](NC(=O)CNC(=O)[C@H](CCC(N)=O)NC(=O)C(C)(C)NC(=O)[C@@H](N)Cc1c[nH]cn1)[C@@H](C)O)[C@@H](C)O)C(C)C)C(=O)N[C@@H](CCS(C)(=O)=O)C(=O)N[C@@](C)(CC(=O)O)C(=O)N[C@H](C(N)=O)[C@@H](C)O) [TP612]
